Here are results for six molecules from patent publication US7244826B1, “Internalizing ERB2 antibodies” (The Regents of the University of California, priority 1998, dated 2007).

“Also recorded” adds a separate entry of the source. Like-named read-outs stand apart in the source and are kept apart here.

Data set [1] addresses ErbB2 on cells (SKBR3, SK-OV-3, MCF7 tumor cell lines) (UniProt P04626). The data set can be described thus: cell-based or functional assay.
Data set [2] has the same target. The data set can be described thus: 5.0 × 10^11 phage on about 1.0 × 10^5 SKBR3 cells at 37° C.; surface bound phage eluted with low pH glycine, titered on E. coli TG1.
Data set [3] relates to SKBR3 cells. The class given is cell-based.
The subject of data set [4] is SKBR3 cells. The class given is cell-based. The source holds these as a separate data set.
In data set [5] the test system is tumor. Particulars: cited from earlier work.
The test system of data set [6] is SK-OV-3 cells. As to conditions: in vitro; cited from earlier work.
Data set [7] has as its target ErbB2 on cells (SKBR3, SK-OV-3, MCF7 tumor cell lines) (UniProt P04626).
For data set [8], the target named is T1, ErbB2 (form in the assay not stated) (UniProt P04626 23-1255).
T1 construct: also called c-erbB2
The experiment in a line: method and form of ErbB2 not stated.

The test system of data set [9] is MCF7 cells. The data set can be described thus: Staining of MCF7 cells by phage antibodies or native scFv. As to conditions: low ErbB2 expression. The class given is cell-based.
The subject of data set [10] is SK-OV-3 cells. The experiment in a line: Staining of SK-OV-3 cells by native scFv. The class given is cell-based. Particulars: moderate ErbB2 expression.
Data set [11] deals with normal breast cell line HST578. The experiment in a line: Staining of normal breast cell line by phage antibodies or native scFv. The class given is cell-based.
Data set [12] addresses ErbB2 (Homo sapiens, UniProt P04626). The experiment in a line: Epitope mapping competition assay: inhibition of phage binding by soluble scFv. The text has this:
Bound phages were detected with an anti-M13 biotinylated Ab and streptavidin-PE.
Neither of these phage were isolated when the same library was selected on recombinant ErbB2. […] This was confirmed using a competition assay (FIG. 2).

The nature of data set [13]: Gel filtration of native scFv. The class given is physicochemical.
The subject of data set [14] is SKBR3 cells. The data set can be described thus: Staining of SKBR3 cells by phage antibodies or native scFv. Particulars: high ErbB2 expression; for staining of SKBR3 cells by phage antibody: phage-displayed.
Setting [15] is: increasing concentrations of soluble scFv, bound phage by anti-M13 biotinylated Ab and streptavidin-PE, MFI.

In data set [1], C6.5 diabody phage yielded a cells that had internalized phage (confocal microscopy, SKBR3 cells) of 20% and a phage titer, Lysed cell fraction (internalized phage) of 1.7e+07. In addition, in [2], the titer of cell surface bound phage, 1st glycine wash was 1.8e+07 and the titer of cell surface bound phage, 2nd glycine wash was 2.8e+06.
For the molecule “C6.5 phage (anti-ErbB2 C6.5 scFv displayed on phage)”, the phage titer, Lysed cell fraction (internalized phage) in [1] turned out to be 6.8e+07. In [2], this molecule gave a titer of cell surface bound phage, 1st glycine wash of 1.2e+07 and a titer of cell surface bound phage, 2nd glycine wash of 5.2e+06.
Take “C6.5 diabody: dimeric scFv from C6.5 V-genes, linker between VH and VL shortened from 15 to 5 amino acids”: in data set [3] (37° C.), the “cells that had internalized phage” value was roughly 20%. In addition, in data set [4], the “increase of titer after cell lysis from the second glycine wash” value is given as greater than 50 fold; the “more phage bound to the cell surface than the anti-Botulinum phage” value is on record as 30 times; the “phage titer, 1st glycine wash” value is on record as 1.8 × 10^7; the “phage titer, 2nd glycine wash” value is reported as 2.8 × 10^6. For the same molecule, in [4], the “phage titer, lysed cell fraction” value was 1.7 × 10^7 and the “recovery of phage from inside the cell, higher than for anti-Botulinum phage” value is 200 fold. The “% ID/g tumor” value in data set [5] (at 24 hours, diabody study) is given as 6.5 % ID/g. Also, in data set [5] (retentions examined over 72 hours, cumulative AUC), the “tumor:organ AUC ratios” value is “greater than reported for other monovalent or divalent scFv molecules”. Also, the “apparent affinity compared to C6.5 scFv” value in data set [6] is listed as “significantly higher”.
In data set [7], irrelevant anti-Botulinum phage (scFv) had a titer of cell surface bound phage, 1st glycine wash of 600000 and a titer of cell surface bound phage, 2nd glycine wash of 100000. The phage titer, Lysed cell fraction (internalized phage) in [1] turned out to be 600000.

B1: F5 scFv (native purified soluble scFv) (scFv, not shown: small tags and cut ends)
scFv: QVQLVESGGGLVQPGGSLRLSCAASGFTFRSYAMSWVRQAPGKGLEWVSAISGRGDNTYYADSVKGRFTISRDNSKNTLYLQMNSLRAEDTAVYYCAKMTSNAFAFDYWGQGTLVTVSSGGGGSGGGGSGGGGSQSVLTQPPSVSGAPGQRVTISCTGSSSNIGAGYGVHWYQQLPGTAPKLLIYGNTNRPSGVPDRFSGFKSGTSASLAITGLQAEDEADYYCQFYDSSLSGWVFGGGTKLTVLG
notes: also called 3TF5; scFv-F5
As to B1, the Kd in data set [8] is 320 nM.

B2: F5: internalizing human anti-c-erbB-2 scFv, SEQ ID NO: 1, ATCC plasmid deposit PTA-7843, also referred to as 3TF5 (protein)
scFv: QVQLVESGGGLVQPGGSLRLSCAASGFTFRSYAMSWVRQAPGKGLEWVSAISGRGDNTYYADSVKGRFTISRDNSKNTLYLQMNSLRAEDTAVYYCAKMTSNAFAFDYWGQGTLVTVSSGGGGSGGGGSGGGGSQSVLTQPPSVSGAPGQRVTISCTGSSSNIGAGYGVHWYQQLPGTAPKLLIYGNTNRPSGVPDRFSGFKSGTSASLAITGLQAEDEADYYCQFYDSSLSGWVFGGGTKLTVLG
For the molecule B2, in data set [3], the “internalization of native purified scFv by SKBR3 cells (in words)” value is “efficiently internalized; also recorded: internalized faster than C6.5” and the “internalization of phage by SKBR3 cells at 4° C. (in words)” value is “no internalization”. Moreover, in data set [3] (37° C.), the “cells that had internalized phage” value was “greater than 95%” and the “internalization of phage by SKBR3 cells (in words)” value is “internalized”. In addition, in [9] (native purified scFv), the “staining of MCF7 cells by native purified scFv” value is “minimal staining”. The “staining of MCF7 cells by phage antibody” value in data set [9] (phage-displayed) was “much more intensely then C6.5”. Moreover, in [10], the “staining of SK-OV-3 cells by native purified scFv” value is “intermediate staining”. Also, in data set [11], the “staining of normal breast cell line HST578 by native purified scFv” value is on record as “do not stain”. In addition, in [12] (competition assay), the “epitope of F5 and C1 relative to each other” value is on record as “recognize the same epitope”; the “epitope relative to C6.5” value was “a different epitope than C6.5”; the “epitope relative to Genentech anti-ErbB2 antibody 4D5” value is reported as “recognize a different epitope”. For the same molecule, in data set [12] (setting [15]), the “inhibition of binding of C6.5 phage by soluble scFv” value is listed as “not” and the “inhibition of binding of F5 or C1 phage by soluble scFv” value is listed as “inhibited”. Moreover, the “oligomeric state by gel filtration” value in data set [13] is listed as “only as a monomer with no appreciable dimerization or aggregation”. For the same molecule, the “staining of SKBR3 cells by native purified scFv” value in data set [14] (native purified scFv) was “intensely stain”. Moreover, the “staining of SKBR3 cells by phage antibody” value in data set [14] is on record as “intensely stain”. Moreover, the “staining of SKBR3 cells by phage antibody” value in data set [14] (listed as 3TF5 phage) was “more intensely than C6.5 phage”.
